Results as given in paper doi:10.1101/2024.05.21.594841 (bioRxiv, 2024).

Key:
Assay in all cases: split reporter
Kre5p = molecular target: T1, Kre5p (S. cerevisiae, UniProt P22023 18-1365)
T1 sequence: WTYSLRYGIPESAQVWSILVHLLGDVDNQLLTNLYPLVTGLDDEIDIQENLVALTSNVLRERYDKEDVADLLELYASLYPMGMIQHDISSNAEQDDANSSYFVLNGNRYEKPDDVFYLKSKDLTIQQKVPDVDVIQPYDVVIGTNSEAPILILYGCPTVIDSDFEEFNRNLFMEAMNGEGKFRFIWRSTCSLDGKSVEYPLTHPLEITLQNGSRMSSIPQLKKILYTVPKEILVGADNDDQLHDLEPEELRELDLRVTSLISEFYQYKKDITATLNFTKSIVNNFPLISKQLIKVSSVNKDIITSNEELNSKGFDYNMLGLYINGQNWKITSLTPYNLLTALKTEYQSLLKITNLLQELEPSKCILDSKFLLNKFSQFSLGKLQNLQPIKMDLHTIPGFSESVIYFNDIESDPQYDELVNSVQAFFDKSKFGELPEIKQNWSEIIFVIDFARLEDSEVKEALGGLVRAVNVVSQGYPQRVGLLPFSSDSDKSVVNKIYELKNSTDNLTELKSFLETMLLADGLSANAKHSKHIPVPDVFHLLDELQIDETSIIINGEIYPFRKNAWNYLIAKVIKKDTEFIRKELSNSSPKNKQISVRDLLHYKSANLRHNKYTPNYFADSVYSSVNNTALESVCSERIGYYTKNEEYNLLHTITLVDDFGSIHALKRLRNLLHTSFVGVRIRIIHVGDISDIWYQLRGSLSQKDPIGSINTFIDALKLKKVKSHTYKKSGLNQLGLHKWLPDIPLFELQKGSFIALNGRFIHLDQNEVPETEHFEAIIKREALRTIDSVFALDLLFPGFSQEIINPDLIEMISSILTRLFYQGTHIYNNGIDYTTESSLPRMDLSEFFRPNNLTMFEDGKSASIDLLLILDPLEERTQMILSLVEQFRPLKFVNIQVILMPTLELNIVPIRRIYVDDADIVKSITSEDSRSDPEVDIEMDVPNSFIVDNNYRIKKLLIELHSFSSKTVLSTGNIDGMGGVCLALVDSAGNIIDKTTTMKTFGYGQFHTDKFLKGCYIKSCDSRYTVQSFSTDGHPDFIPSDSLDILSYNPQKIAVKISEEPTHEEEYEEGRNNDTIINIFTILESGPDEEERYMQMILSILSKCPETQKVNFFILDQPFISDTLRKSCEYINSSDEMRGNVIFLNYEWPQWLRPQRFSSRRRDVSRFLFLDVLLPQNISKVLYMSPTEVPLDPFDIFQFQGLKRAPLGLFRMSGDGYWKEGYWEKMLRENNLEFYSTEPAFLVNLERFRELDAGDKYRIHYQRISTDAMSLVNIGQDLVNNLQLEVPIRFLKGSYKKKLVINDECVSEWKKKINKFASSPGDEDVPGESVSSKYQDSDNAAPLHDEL

Kar2p = Kar2p (S. cerevisiae, UniProt P16474 43-682)
Pdi1p = molecular target: T2, Pdi1p (S. cerevisiae, UniProt P17967 29-522)
T2 sequence: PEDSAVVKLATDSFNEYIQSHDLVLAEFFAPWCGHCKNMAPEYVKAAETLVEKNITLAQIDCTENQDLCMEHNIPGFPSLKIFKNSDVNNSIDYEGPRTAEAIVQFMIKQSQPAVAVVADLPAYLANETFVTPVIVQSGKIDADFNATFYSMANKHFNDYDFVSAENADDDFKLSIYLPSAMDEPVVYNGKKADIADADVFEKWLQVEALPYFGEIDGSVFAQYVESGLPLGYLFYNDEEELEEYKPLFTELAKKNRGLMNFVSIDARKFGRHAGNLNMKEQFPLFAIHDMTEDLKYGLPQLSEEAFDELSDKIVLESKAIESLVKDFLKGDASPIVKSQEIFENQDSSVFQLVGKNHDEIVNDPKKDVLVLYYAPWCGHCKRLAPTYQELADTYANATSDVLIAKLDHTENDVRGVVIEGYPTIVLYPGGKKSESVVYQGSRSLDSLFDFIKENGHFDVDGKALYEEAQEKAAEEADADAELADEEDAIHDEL

Scj1p = molecular target: T3, Scj1p (S. cerevisiae, UniProt P25303 22-377)
T3 sequence: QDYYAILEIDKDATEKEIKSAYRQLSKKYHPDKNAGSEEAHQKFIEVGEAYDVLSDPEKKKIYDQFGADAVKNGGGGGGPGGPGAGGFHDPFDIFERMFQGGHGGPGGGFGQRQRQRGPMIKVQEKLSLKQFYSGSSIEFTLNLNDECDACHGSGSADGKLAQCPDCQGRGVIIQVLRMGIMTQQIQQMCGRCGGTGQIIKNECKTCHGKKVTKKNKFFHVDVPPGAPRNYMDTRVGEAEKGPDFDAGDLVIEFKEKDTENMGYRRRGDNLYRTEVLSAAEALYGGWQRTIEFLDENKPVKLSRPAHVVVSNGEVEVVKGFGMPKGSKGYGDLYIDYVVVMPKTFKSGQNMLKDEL

Sequence of Kar2p (P16474 43-682): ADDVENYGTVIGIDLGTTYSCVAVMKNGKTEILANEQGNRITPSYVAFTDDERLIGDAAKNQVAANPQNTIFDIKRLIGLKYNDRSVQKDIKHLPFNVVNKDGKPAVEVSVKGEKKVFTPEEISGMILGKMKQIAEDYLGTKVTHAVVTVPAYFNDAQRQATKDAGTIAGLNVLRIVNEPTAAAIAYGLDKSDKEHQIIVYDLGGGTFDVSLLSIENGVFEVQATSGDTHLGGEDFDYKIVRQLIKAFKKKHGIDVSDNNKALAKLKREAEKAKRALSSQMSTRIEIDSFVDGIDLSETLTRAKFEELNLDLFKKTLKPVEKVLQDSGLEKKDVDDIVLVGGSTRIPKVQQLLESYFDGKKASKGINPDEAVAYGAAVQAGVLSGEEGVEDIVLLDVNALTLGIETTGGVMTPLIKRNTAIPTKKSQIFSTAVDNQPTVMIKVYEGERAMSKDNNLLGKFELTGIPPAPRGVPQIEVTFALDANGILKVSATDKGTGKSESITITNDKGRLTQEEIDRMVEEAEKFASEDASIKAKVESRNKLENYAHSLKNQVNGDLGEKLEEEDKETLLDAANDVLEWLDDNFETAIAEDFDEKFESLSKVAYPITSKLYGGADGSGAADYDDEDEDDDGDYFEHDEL

- normalized interacting score (Kre5p): > 40%
- normalized interacting score (Kar2p): 93%
- normalized interacting score (Pdi1p): > 40%
- normalized interacting score (Scj1p): > 40%
B1: Lhs1p (natural protein)
chain: AVLGVDYGQQNIKAIVVSPQAPLELVLTPEAKRKEISGLSIKRLPGYGKDDPNGIERIYGSAVGSLATRFPQNTLLHLKPLLGKSLEDETTVTLYSKQHPGLEMVSTNRSTIAFLVDNVEYPLEELVAMNVQEIANRANSLLKDRDARTEDFVNKMSFTIPDFFDQHQRKALLDASSITTGIEETYLVSEGMSVAVNFVLKQRQFPPGEQQHYIVYDMGSGSIKASMFSILQPEDTTQPVTIEFEGYGYNPHLGGAKFTMDIGSLIENKFLETHPAIRTDELHANPKALAKINQAAEKAKLILSANSEASINIESLINDIDFRTSITRQEFEEFIADSLLDIVKPINDAVTKQFGGYGTNLPEINGVILAGGSSRIPIVQDQLIKLVSEEKVLRNVNADESAVNGVVMRGIKLSNSFKTKPLNVVDRSVNTYSFKLSNESELYDVFTRGSAYPNKTSILTNTTDSIPNNFTIDLFENGKLFETITVNSGAIKNSYSSDKCSSGVAYNITFDLSSDRLFSIQEVNCICQSENDIGNSKQIKNKGSRLAFTSEDVEIKRLSPSERSRLHEHIKLLDKQDKERFQFQENLNVLESNLYDARNLLMDDEVMQNGPKSQVEELSEMVKVYLDWLEDASFDTDPEDIVSRIREIGILKKKIELYMDSAKEPLNSQQFKGMLEEGHKLLQAIETHKNTVEEFLSQFETEFADTIDNVREEFKKIKQPAYVSKALSTWEETLTSFKNSISEIEKFLAKNLFGEDLREHLFEIKLQFDMYRTKLEEKLRLIKSGDESRLNEIKKLHLRNFRLQKRKEEKLKRKLEQEKSRNNNETESTVINSADDKTTIVNDKTTESNPSSEEDILHDEL
